± gives the uncertainty stated by the source.
assay: amyloid nucleation score (Sup35N fusion, yeast selection) (log enrichment); library NNK1; higher = more nucleation; inactive = no reads after selection
How it was run: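 Output and input plasmid inserts were sequenced by Illumina after psi-negative yeast carrying Sup35N fused to peptides of 20 random codons had been induced 24 hours with 100 μM copper sulfate and grown 7 days at 30°C on medium lacking adenine and uracil. The nucleation score is the DiMSum log enrichment of output over input reads, centred on the mode score of non-aggregating sequences. Sequences with under 100 input reads were excluded.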

Substance	amyloid nucleation score
RGLVFEGKLAFTVATVVFFW	-1.19 ± 1.4
TYSLYMCADKFRNTLVNKAV	inactive
TKCGIAYFTQICLVPDVSNS	7.04 ± 0.085
CQQVLWS	0.039 ± 0.79
SHEFLSSVYQSVLIVSNF	-0.508 ± 0.58
CTSVRVLGSNQCSYGVSKCR	-0.39 ± 0.39
YCCDDDGKFAWNECWDDTAR	0.102 ± 0.21
NNVLCSGKMGRLCVGCIMPC	-0.507 ± 1.5
ILRAFWESGHTGGVWATVSS	-1.19 ± 0.77
EFRQMVVSSGSDERGERDKG	0.052 ± 0.29
PPHLLFCYNMVLTWWLYAFA	0.088 ± 1.2
KENRFISQSDTALYSIKKQH	0.549 ± 1
TRSYNWARCTLSGVALGQGQ	-0.724 ± 2.4
RSSMPRSWAVWPRWE	0.176 ± 0.71
CYPPEVF	1.31 ± 0.67
LVHRRFMESDISGLCCALLW	-0.224 ± 1.4
ALMRLTRNSMSFWRQ	-0.17 ± 0.36
LSCQTPQSDEMSVAESAWAY	-1.18 ± 1.2
MLGYIHAEVHVIVSWNLCLK	-0.378 ± 0.53
LYIYWCSWVNGTFT	0.393 ± 0.33
NFLNGLMLTSRVRKFLASGY	-0.161 ± 0.6

Substance	amyloid nucleation score
FIRGLCNVLGCSR	1.04 ± 0.24
DYPRSIILCWHF	-1.39 ± 0.74
TNRVHLWFVL	7.57 ± 0.078
IVVNLGWFQIGIYLPARSDT	-1.24 ± 1.9
SFGNVILSGIIRTTVLDRGV	-0.381 ± 0.74
VWVLPRDNVFSIKNYMSFS	6.965 ± 0.045
RQAFIRGGLEAAKGAYHVLG	-1.38 ± 2.4
LFNKNGYNSETRFLFKLGFD	1.02 ± 0.56
CEFLIFTFRVSGEVLLQSRA	0.265 ± 0.92
EFKTDPDYT	0.2 ± 0.53
TFTGDKIPIYSGVTVMASGM	0.715 ± 0.84
FFMLFRCGF	0.333 ± 0.87
SDGMFSYNVRFAQRSWMYRT	-0.14 ± 0.55
VCELHLILM	0.425 ± 0.3
MLIFNGFTLLVMRVEVAVGS	0.066 ± 0.64
WISYVQNTIYRFAFEESCLG	1.31 ± 0.43
EWYLIYGGTRSGLIYRSYAR	0.109 ± 0.38
VFEADQNENGTTAPSEAQDR	-0.088 ± 0.3
HDIAIMSSVGFSTAHDICSE	0.26 ± 0.99
QFLALVCFCIPRLVRLAGYE	-1.35 ± 1.1
FFDSRFLFDSRTGSMYA	-1.71 ± 1.5

Substance	amyloid nucleation score
NPAGF	0.558 ± 1.1
CCYYTSVILVFDGRFDEMPY	4.23 ± 0.07
GSMEHCNRNRFFFMGERLLR	-1.1 ± 2.7
SMQQVSTSVQKVMDAYHWGW	0.554 ± 0.79
QIQIT	0.152 ± 1
LKNSRYSKLFIESMTWWLVY	0.087 ± 0.16
SVLKSITPNGPLLFSYVCSI	-1.56 ± 0.58
TSEGHSLRNEEEGSSEGRCK	0.905 ± 0.51
RCYVDKSYNGDWASSAGQKH	0.065 ± 0.44
CCQRYCCTSGLANNWNRVYH	0.812 ± 0.75
CYEEPRMPNFFAVFYNSMLE	0.144 ± 0.41
VGSIVELSVHTTSDEKVSCR	0.316 ± 0.25
WHPAKMILEYAEVRSNL	-0.032 ± 0.39
GLYLDFGYSGCYGKKL	5.67 ± 0.082
SIFIAGWGCISYKRRVACFR	inactive
RYDTNMFFSCCT	5.591 ± 0.054
GRLIGDSWLGYTKSGPGRKR	inactive
RNNSVLLLSSYANKRYSPAW	-0.439 ± 0.78
CHNVAVPRVIVIGFDSGILY	0.341 ± 0.7
LPFSLFSLD	0.308 ± 0.42
RGFMWLACITCFYAVCYNVS	0.005 ± 0.45

Substance	amyloid nucleation score
GCVTYIYGCMLYCEEAFR	5.17 ± 0.085
APVFYIPIMFSQLFGLAQIY	6.935 ± 0.06
GSDNLDFRCNWVYN	0.616 ± 0.69
SMPCQWR	0.503 ± 0.51
YLIKCTTIAGRTGYSVTMRD	-0.341 ± 1
VALWGQYGTSIGAIGAVFSH	-0.03 ± 0.54
SLVYQYIVLCTV	-1.47 ± 1.2
DALII	0.257 ± 0.4
YNCMEYSDARHKSSTVRLHY	-0.253 ± 0.62
APSLVVRPSFGGLRTRVVYP	0.44 ± 0.58
QPFALNRLYHT	-0.591 ± 0.62
NDRVNRNTFSYPWQVAFFRQ	4.94 ± 0.064
RFRFMLVFSNLSLL	-0.022 ± 0.53
IAIFMYCM	7.467 ± 0.055
FGYVDPRQCDISEHLPLSTV	-0.345 ± 0.61
GPSVPLGVFEKKTAFLKKTL	-0.328 ± 0.79
DMHLMSGDLGMRVRPGGSAV	0.371 ± 0.7
LRMKVINRNPWVKTLSFVLA	-0.297 ± 1.1
LTYATDSFNRNFHILMHHVP	-0.711 ± 0.74
VEGLEDGVWR	0.876 ± 0.38
FLCLLMFPIRHRL	0.004 ± 0.33

Source: the supplement of paper PMC12042874
